Laboratory results taken from US20230279077A1.

What was measured:
[1] = target: HSV-1 glycoprotein D-Fc fusion protein (HSV-1) (UniProt Q69091); test: SPR Biacore T200, single cycle kinetics, G-Fc captured on anti-human IgG, 1:1 fit
[2] = target: HSV-1 glycoprotein D-Fc fusion protein (HSV-1) (UniProt Q69091); test: phage ELISA, glycoprotein D coated, anti-M13 HRP; well C10
[3] = target: HSV-1 glycoprotein D-Fc fusion protein (HSV-1) (UniProt Q69091); test: SPR, G-Fc captured on anti-human IgG
[4] = target: HSV-1 glycoprotein D-Fc fusion protein (HSV-1) (UniProt Q69091); test: SPR Biacore T200, single cycle kinetics, G-Fc captured on anti-human IgG, 1:1 fit, second run
[5] = target: HSV-1 glycoprotein D-Fc fusion protein (HSV-1) (UniProt Q69091); test: SPR, G-Fc captured on anti-human IgG; high end tied to G75 by Table 6

B1: 3-G-75_M13R (VHH, not shown: small tags and cut ends)
VHH: QVKLEESGGGVVQDGGSLRLSCAAIEQFFTTNAMAWFRQAPGKERELVAATDWSGQSTSYADSVKGRFTISRDTAKNVMYLQMNILHTEDTAVYYCARAPGRVLLTSDLESYTIWGQGTQVTVSS
Kd [1]: 4.02 nM | koff [1]: 0.0139 s⁻¹ | kon [1]: 3.47e+06 M⁻¹ s⁻¹ | A450 nm [2]: 1.13 | Kd [3]: 4 nM | Kd [4]: 3.86 nM | koff [4]: 0.0152 s⁻¹ | kon [4]: 3.93e+06 M⁻¹ s⁻¹ | Kd [5]: 4 nM
